Source: the nanobody polyreactivity screen of Harvey et al. (2022)

Assay: yeast display, Sf9 membrane polyspecificity reagent, FACS + sequencing; frameworks hold sequencing errors
Procedure, shortened: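 Nanobodies came from a synthetic yeast display library in Saccharomyces cerevisiae BJ5465, induced with galactose for 36–48 hours and stained for 1 hour at 4 °C with 10% biotinylated, detergent-solubilized Sf9 membrane reagent. Cells were enriched on streptavidin microbeads and then FACS-sorted, with low and high (top ~1%) gates set on anti-HA fluorescence for expression and streptavidin fluorescence for reagent binding. Each polyreactivity label reflects the gate a clone came from. Genes were amplified by colony PCR, sequenced by MiSeq 2 × 250 and filtered by CDR length.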

| Sequence | polyreactivity (PSR sort gate) |
| --- | --- |
| QVQLVESGGGLVQAGGSLRLSCAASGRTFRGYAMGWYRQAPGKERELVAAITSSGGRTYYADSVKGRFTISRDNAKNTVYLQMNSLKPEDTAVYYCAKDYYSPRGYDYWGQGTQVTVSS | high polyreactivity |
| QVQLVESGGGLVQAGGSLRLSCAASGRTFRGYSMGWYRQAPGKERELVAAISSSGGRTYYADSVKGRFTISRDNAKNTVYLQMNSLKPEDTAVYYCNAYYWSATWYFAAWDYYYWGQGTQVTVSS | high polyreactivity |
| QVQLVESGGGLVQAGGSLRLSCAASGRTFRHYAMGWYRQAPGKEREFVAAISRSGGSTRYADSVKGRFTISRDNAKNTVYLQMNSLKPEDTAVYYCAATSRSYNDYDYWGQGTQVTVSS | high polyreactivity |
| QVQLVESGGGLVQAGGSLRLSCAASGRTFRIYALGWYRQAPGTERELVATIDSGGSTNYADSVKGRFTISRDNAKNTVYFQMNSLKPEDTAVYYCNAEDKPWYYLAGQAEYDSWGQGTQVTVSS | low polyreactivity |
| QVQLVESGGGLVQAGGSLRLSCAASGRTFRIYAMGWYRQAPGKERELVAAISRSSTSTYYADSVKGRFTISRDNAKNTVYLQMNSLKPEDTAVYYCAAVVTVQYSQPYDHWGQGTQVTVSS | high polyreactivity |
| QVQLVESGGGLVQAGGSLRLSCAASGRTFRIYAMGWYRQAPGKERELVASISWSGGSTYYADSVKGRFTISRDNAKNTVYLQMNSLKPEDTAVYYCAADYPFIALYDYWGQGTQVTVSS | low polyreactivity |
| QVQLVESGGGLVQAGGSLRLSCAASGRTFRKKAMGWYRRAPGKERELVAAISASGTSTYYADSVKGRFTNSRDNAKISVYLQMISLKPEDTAVYYCAARSYGIYDYWGQGSQVTVSS | high polyreactivity |
| QVQLVESGGGLVQAGGSLRLSCAASGRTFRKYAMGWSRQAPGKERELVAAINRGGTTKYADSVKGRFTISRDNAKNTVYLQMNSLKPEDTAVYYCNAAYGGVFFYAYDYWGQGTQVTVSS | low polyreactivity |
| QVQLVESGGGLVQAGGSLRLSCAASGRTFRKYGMGWYRQAPGKERELVAAITRSGGSTYYADSVKGRFTISRDNAKHTVYLQMNSLKPEDTSVSYCARSPVVVGSFLSYDYWGQGTQVTVSS | high polyreactivity |
| QVQLVESGGGLVQAGGSLRLSCAASGRTFRLYALGWYRQAPGKERELVAAITRGGRTNYADSVTGRFTISRDNAKNTVYLQMNSLKPEDTAVYYCAARYVERHTDYYYWGQGTQVTVSS | low polyreactivity |
| QVQLVESGGGLVQAGGSLRLSCAASGRTFRLYAMGWYRQAPGKERELVAAISARGSSTYYADSVKGRFTISRDNAKNTVYLQMNSLKPEDTAVYYCAAKRSYPYGSGYWGQGTQVTVSS | high polyreactivity |
| QVQLVESGGGLVQAGGSLRLSCAASGRTFRLYAMGWYRQAPGKERELVASISRSVGSTYYADSVKGRFTISRDNAKNTVYLQMNSLKPVDTAVYYCAARSYIPGGWYGAYYYWGQGTQVTVSS | high polyreactivity |
| QVQLVESGGGLVQAGGSLRLSCAASGRTFRNNAMGWYRQAPGKERELVAAITSGGSTNYADSVKGRFTISRDNAKNTVYLQMNSLKPEDTAVYYCAKDFWYVTGGWSSGMDYWGQGTQVTVSS | low polyreactivity |
| QVQLVESGGGLVQAGGSLRLSCAASGRTFRNYAMGWYRQAPGKERELVAAISASGGSTYYADSVKGRFTISRDNAKNTVYLQMNSLKPEDTAVYYCAARYQGFGYRKYDYWGQGTQVTVSS | high polyreactivity |
| QVQLVESGGGLVQAGGSLRLSCAASGRTFRPYALGGYRPAPGKERELVAVITSGGSTYYADSVKGRFTISRDNAKNTVYLQMNSLKPEDTAVYYCARVYRSYAWSGYDYWGQGTQVTVSS | high polyreactivity |
| QVQLVESGGGLVQAGGSLRLSCAASGRTFRPYAMGWYRQAPGKEREFVARITWSGGTTYYADSVKGRFTISRDNAKNTVYLQMNRLKPEDTAVYYCAARVSRQTPVISYNYWGQGTQVTVSS | low polyreactivity |
| QVQLVESGGGLVQAGGSLRLSCAASGRTFRPYAMGWYRQAPGKERELDAAIDSSGTSTYYADSVKGRFTISRDNAKNTVYLQMNSLKPEDTAVYYCAKAWPDHWFSRYDYWGQGTQVTVSS | low polyreactivity |
| QVQLVESGGGLVQAGGSLRLSCAASGRTFRPYAMGWYRQAPGKERELVAAIDSSGTSTYYADSVKGRFTISRDNAKNTVYLKMNSLKPEDTAVYYCAKAWPDHWYSRYDYWGQGTQVTVSS | low polyreactivity |
| QVQLVESGGGLVQAGGSLRLSCAASGRTFRRNAMGWYRQAPGKERELVAAISFSAGRTYYADSVKGRFTISRDNAKNTVYLQMNSLKPEDTAVYYCNALRQDTGHYPYDYWGQGTQVTVSS | low polyreactivity |
| QVQLVESGGGLVQAGGSLRLSCAASGRTFRRNAMGWYRQAPGKERELVAAISWSGSRTYYADSVKGRFTISRDNAKKTVYLQMNSLKPEDTAVYYCAAEVWSTQGSATVQYDYLGQGTQVTVSS | high polyreactivity |
| QVQLVESGGGLVQAGGSLRLSCAASGRTFRRNAMGWYRQAPGKERELVASITGTGSTTYYADSVKGRFTISRDNAKNTVYLQMNSLKPEDTAVYYCAASSKYQDYWGQGTQVTVSS | high polyreactivity |
| QVQLVESGGGLVQAGGSLRLSCAASGRTFRRYAMGWYRQAPGKERELVAAITGAGSTYYADSVKGRFTISRDNAKNTVYFQMNSLKPEDTAVYYCAATPDPPHSYEYWGQGTKVTVSS | low polyreactivity |
| QVQLVESGGGLVQAGGSLRLSCAASGRTFRRYAMGWYRQAPGKERELVAAITYRGGSTYYADSVKGRFTISRDNAKNTVYLQMNSLKPEDTAVYYCNKQGNGQLGTTQGRYDYWGQGTQVTVSS | high polyreactivity |
| QVQLVESGGGLVQAGGSLRLSCAASGRTFRRYAMGWYRQAPGKERELVAVISGGGTYYADSVKGRFTISRDNAKNTVYLQMNSLKPEDTAVYYCATDSYSSLYGYDYWGQGTQVTVSS | high polyreactivity |
| QVQLVESGGGLVQAGGSLRLSCAASGRTFRRYAMGWYRQAPGKERELVAVISRGGSTHYADSVKGRFTISRDNAKNTVYLQMNSLKPEDTAVYYCNAVVSVYTQDLDYWGQGTQVTVSS | high polyreactivity |
| QVQLVESGGGLVQAGGSLRLSCAASGRTFRRYVMGRYRQAPGKEMEMVARITTSGGNTYYADSVKGRFTISRDNAKITVYLQMNSMKPEVTAVYYCAADFLRTYKEYNLGYWGQGTQVTVSS | low polyreactivity |
| QVQLVESGGGLVQAGGSLRLSCAASGRTFRSYAMGWSRQAPGKGRELVAAISRSGGTTTYADSVKGRFTISRDNAKNTVYLQMNSLKPEDTAVYYCARGQNRYWQFHGAYDYWGQGTQVTVSS | high polyreactivity |
| QVQLVESGGGLVQAGGSLRLSCAASGRTFRSYDMGWYRQAPGKERELVAAISKRGGNTYYADSVKGRFTISRDNAKNTVYLQMNSLKPEDTAVYYCAKRVSGSPPTAGSLSDSWGQGTQVTVSS | high polyreactivity |
| QVQLVESGGGLVQAGGSLRLSCAASGRTFRTNAIGWYRQATGKERELVAAIRASTGSTYYADSVKGRFTISRDNAKNSVYLQMNSLKPEDTAFYYCAARLRRGLTATWYYYWGQGTQVTVSS | high polyreactivity |
| QVQLVESGGGLVQAGGSLRLSCAASGRTFRTNAMGWYRQAPGKERELVAAISTGGGIANYADSVKGRCTISRDNAKNTVYLQMNSLKPEDTAVYYCNADIYTWFQIGGYQYDYWGQGTQVTVSS | low polyreactivity |
